# Test results as given in the DeepSol protein solubility set.
# Experiment: soluble on expression in E. coli; label from the status in PepcDB or PDB records
row,Sequence,soluble on expression in E. coli
1,MPNQGSSNKVYVIGVGMTKFEKPGRREGWDYPDMARESGTKALRDAGIDYREVEQGYVGYVYGESTSGQRALYELGMTGIPIVNVNNNCSTGSTALYLGAQAIRGGLADCVLALGFEKMQPGALGGGADDRESPLGRHVKALAEIDEFGFPVAPWMFGAAGREHMKKYGTTAEHFAKIGYKNHKHSVNNPYAQFQDEYTLDDILASKMISDPLTKLQCSPTSDGSAAVVLASEDYLANHNLAGRAVEIVGQAMTTDFASTFDGSARNIIGYDMTVQAAQRVYQQSGLGPKDFGVIELHDCFSANELLLYEALGLCGPGEAPELIDDNQTTYGGRWVVNPSGGLISKGHPLGATGLAQCAELTWQLRGTAEARQVDNVTAALQHNIGLGGAAVVTAYQRAER,not soluble
2,MRNILKATTLENKFPLFTVENGCIVSKDADITVAFRVELPELFTVTAAEYEAIHSAWNKAVKVLPDYSIVHKQDWFIKENYAPDIQKDDLSFLSRSFERHFNERPFLNHTCYLFLTKTTKEHSRMQSNFSTLCRGFLVPKEIRDRETVTKFLEAVGQFESIMNDSGFITLTRLSSDEITGTRETAGIVEKYFSLSQTDTTTLKDISLGADEMKIGDNILCLHTLSDAEDMPGKVGTDTRYEKLSTDRSDCRLSFASPVGVLLSCNHIYNQYIFIDDHTENLKQFEKMARNMHSLSKYSRANQINKSWIEEYLNEAHSQGLISVRCHCNIMAWSDDRDELKHIKNDVGSQLALMECKPRHNTTDTPTLFWAGIPGNQADFPAEESFYTFIEQALCLFTEETNYKSSLSPFGIKMVDRVTGKPLHIDISDLPMKRGIITNRNKFILGPSGSGKSFFTNHMVRQYYEQNAHVLLVDTGNSYLGLCEMINRKTHGEDGIYFTYTTENPIAFNPFYVEDGVFDIEKKESIKTLILTLWKRDDEAPTRAEEVALSNAVSSYIGLITKDCSVTPCFNTFYEYVRNDYRAHLQEKNVREKDFDIDNFLNVLEPYYKGGEYDYLLNSDKELDLLHKRFIVFELDNIKDHKILFPITTIIIMEVFINKMRKLKGIRKLILIEEAWKAIASANMADYIKYLYKTVRKYFGEAIVVTQEVEDIISSPIVKESIINNSDCKILLDQRKYLNKFDSIQNLLGLTDKERSQVLSINLANHPNRKYKEVWIGLGGTQSAVYATEVSLDEYFTYTTEETEKMELFALSEKLGGNLELAIKRLAESKRNPEK,not soluble
3,KIDDGTELKLKGEKLRYVSRGGLKLEKALAVFNLSVEDMITIDIGASTGGFTDVMLQNGAKLVYAVDVGTNQLVWKLRQDDRVRSMEQYNFRYAEPVDFTEGLPSFASIDVSFISLNLILPALAKILVDGGQVVALVKPQFEAGREQIGKNGIVRESSIHEKVLETVTAFAVDYGFSVKGLDFSPIQGGHGN,not soluble
4,MEQRFPELNVDLSFEQEFQMRVMEEQVSAMSLQEARELLLQASRLLMMKDNVIRSLVKRAARS,soluble
5,MGSDKIHHHHHHMFSKSLEALHHAKRYRKRELFDPLLKDYASNDYLGLSVKKDLLQNAFNKLQSFVSHSPKASMLVNGYHPLHAELEERLANLLGFESALLVGSGFLGNLALIDTLLVKNALLFMDAHYHASGIFSTKIKPNQVIFFSHNDIKDLKQKLFNAPKNKIKFIAIEGVYSMDASVAPYDFYAIIQEIPNAFLIVDEAHSFGTIGENLLGFLEYYRIKEKDKIIKLSTFSKALASYGACILAPLQTIEFLTNRAKSVIYTTALSLLDTALTLAHLEYFIVQKQELKNELSKHQQIIFETLGIRTLAGFFTLEFESNPALLNAHHFLKEKGFLVGAIRPPTVSKPLLRVSLSLKNSLEDTKELANTLLNYSKIQSSFKSG,not soluble
6,SNQKIASIEQLSNNEGIISALAFDQRGALKRMMAKHQTEEPTVAQIEQLKVLVAEELTQYASSILLDPEYGLPASDARNKDCGLLLAYEKTGYDVNAKGRLPDCLVEWSAKRLKEQGANAVKFLLYYDVDDAEEINIQKKAYIERIGSECVAEDIPFFLEVLTYDDNIPDNGSVEFAKVKPRKVNEAMKLFSEPRFNVDVLKVEVPVNMKYVEGFAEGEVVYTKEEAAQHFKDQDAATHLPYIYLSAGVSAELFQETLKFAHEAGAKFNGVLCGRATWSGAVQVYIEQGEDAAREWLRTTGFKNIDDLNKVLKDTATSWKQ,not soluble
7,MGHHHHHHSHMDLSYALETVLNKQFPSSPQDVLGELQFAFVCFLLGNVYEAFEHWKRLLNLLCRSEAAMMKHHTLYINLISILYHQLGEIPADFFVDIVSQDNFLTSTLQVFFSSACSIAVDATLRKKAEKFQAHLTKKFRWDFAAEPEDCAPVVVELPEGIEMG,not soluble
8,MFRWLFQSEGVTRSFDTPSETQSARDDRKTIGDYADNFLLFDLVMGEVEMAVIRFEIEKEEKEEAERKAERRPDYSWLISGNMNRARKQLSINEKNRIENACERLKPCEWSKTIDTWKIKTQNPSTRDQIIENFVIATHETIQSRKHEPTITEVLKNFATGRSGSLHTVSHGELPRVGSGRNISELSFIELQEMV,not soluble
9,MSLAKFAPVQYKYIIKAEFEIDGIVDREDIIGAIFGQTEGLLGMELDLRELQKQGKLGRIEVEYKRVGNKTIGTITIPTSLKAVETSLIAAAIETVDRVGPAKARFRVKEIVDVRSSKREYIRNRAKELFVQMMSKTAPDIEELRRELEEAYYSKQLIEYGEEKLPAGPLVEKSDEIILVEGRADVVNLVKHGILNVLGMNGINIPKSVVELSKRKKVTLFIDGDRGGELVLRNMLAAGADIDYVAVAPPGREVEELTNKEILKALKSKIPLEQYIKNLRISINNDENKEKYKELLSKVFDTKKAIVFDEQFNIIDEKPLEEIDKLPSAYGIAIDKILDNETYAKIKGKYQLILALDSNVNAQERVITLKDIQEGHHHHHH,not soluble
10,MKGNRQRIQPKNIFQAVIDSPLSDQEKEVLTFLYQPIVGANAFSLYWLLLSETTDSEENGSLFHADLISLLDLSCQQLEEACYKLEGIGLLETYKKTDRELGDCYLYYLKAPETAARFFKDEVLALVLFNRVGQRKFDQLVQKFQPHPTKTEGYQNVSASFQEVYAFKEEQIVSEANRLTTIQETFSQKEKSKKISVSTDSFDWHYFVEGLHRLGLQLPEDEASFQEEVYVFHQLYGINELDMVDFASKSFDYYTSRILPKELVRTIHQAFDPDKKPQSTNVVTNKQAQLTVEEQQTYRYNALKMNGFSELDIQMIMDSEKNPPIQYLEALKNSRGGYTTPQERSLVKYLVAKSGLPTSVINILINYVYNIQQQPTLKAEYVNRIANEWGQSGIHSPEKAIEHVRELAKQSQTKQKQRQQNYSGKRQTVRQERLPEWADQPNDETKLSPEEQAELDRQIQEFLNQGGDQ,not soluble
11,ARLKHLEDEPGHEDEGKRPLFHFSAVERIARIGVPSMIQQSIVSISMLMMQGLVNSYGSVFIAGYTAATKIDSLAMMPNMNFSNAMSSYTAQNIGAGKIERVKDGYKANM,not soluble
12,FDKTVLQIFANYCVAAAESMAHTLMRTAHSAFVKETEDFSCTIMTPRGQTFASPKTLGATWYPGLDFSGAIDMIDGYEPGDICMTNDAYSGYVATHTPDIMMWKPVYYQGEMVCFVGGHIHNTDMGGAVPASLSRTLTEVHQEGIRFPPTKIVRRGVLNEELMRLMELNVRSPDQNRGDLQAQTAMLMTGERRIVEIIERFGLQAFKEGMAAMLDYSEQQARAIVRAMPDGEYFFAEYANEDSLNGKPLRVAITLRIRGDELEFDFTGSDPQLTSSLNMPTGGKERHVLALVGLNYVLYSLNPEILLNAGMLRVARCILPEGSVVNPLAPAAVGMRSLTCKVVQYATMGVFSQVVPDRLPASPAGGMSIVNVKTTDRDGKTIIAAIEPVGGGAGGDPYSDGADASGAIVAFLRNTPVEINETEVPIRITRYGMVPDSGGPGRYRGGLGTCMEFQVYTPNSAVTARNRDRSRFASWGVLGGKAGTVSRFLRNPGTAHEEDLGVHDFIHCQPGDVIRLEGCGGGGYGSPWERDPARVLHDVRCGYV,not soluble
13,DLRRQLRKAVMDHVSDSFLETNVPLLVLIEAAKNGNEKEVKEYAQVFREHANKLIEVANLACSISNNEEGVKLVRMSASQLEALCPQVINAALALAAKPQSKLAQENMDLFKEQWEKQVRVLTDAVDDITSIDDFLAVSENHILEDVNKCVIALQEKDVDGLDRTAGAIRGRAARVIHVVTSEMDNYEPGVYTEKVLEATKLLSNTVMPRFTEQVEAAVEALSSDPAQPMDENEFIDASRLVYDGIRDIRKAVLMI,soluble
14,AHHHHHHGSEIKYRPEELTKLPRSVEYREGKVYMINQRLLPREFKVEEFTTVEAVAEAIKNMTVRGAPAIGAAAAFGLALYAETSKAKTKDEFFDGFYRAYETLKNTRPTAVNLFWALNRIKKLVEEHREDSLDEIKRLIVEEAQKIADEDVEANLRMGHYGAEVLPEGNILTHCNAGSLATVHLGTVGAVVRVMHKEGTLKLLWLDETRPVLQGARLSAWEYSYDGLNVKLIADNAAAFVMQQGKVDAIIVGADRIVANGDFANKIGTYMLAVLAKEHGIPFFTVAPLSSIDMSLSSGKEIPIEERSPEEVLTCGGCRIAPDVPVYNPAFDVTPHKYLTGIITDRGVVWPPFKRNLKKLFETL,soluble
15,MGSDKIHHHHHHMSNLKPDSVIACLDCPNHVQAVLEASMWASIRLQAPIGLLYSVPSLQQKAAVDYSGCLNIDDENTLLDQFTAKEHLSNCELKAQGKRLLHQASSYCEQQRHKIKTYTLHRHEKLDESINYVDDQAQLIVIGHHVTCKSTLSQLIRSSHCPILVTHAPFLPPTSALFAFDNSPTSHKMLNWLCKTPLVRALMIHIVMVSKENSENCDALREAYARLKQAGIKCKKTLLDCRDVTSALTYYQHDNDIGLLMTGAFAQPRLIELLKGSDTKKLLGSTTTPYLLFPKA,not soluble
16,MSLNPKKYNGDHLDEKSREIMLKTIEFFENMGKAKLKEKASKREWYADFLEFIKENKIFYTLMTPPEYADGDPNVRWDTWRICDFSELLAFYSLDYWYTWQVTVLGLGPIWMSKNEKIKKEVAELLKNGAVFAFGLSEREHGADIYATETKLVPQPDGTYKAYGRKYYIGNSNVAAIISTFARIADPDGSLPDKPDKSRFAFFALRRDEKYYELIKNIVDAQMFVGDFLIHDYPVTEDDILEKGEEAWDAALNTVNVGKFNLGWASIGICTHAFYEAINHASKRRLYGMYVTDFPHIKRLFVDAYARLMAMKLFARRACDYMRVASREDRRYLLYSAMVKSKVTREGEEVINLLWDVIAAKGFEKDTYFEMAARHIRALPKLEGTVHVNMALILKFLPKYLFEPAEFPEVPKMDVPKHDEFLFNQGPSGGLSQVRFHDYQKVYDSFDFPNINVFKEQIATFKEMCMAAPPSPEQMRDFDFMVTWGEMFALLVYGHLILEAAKIYDVDKDLLEEIFDFMIRDFSKFAVELMAKPSATDKQIEYAKKMIKRPVPDKERFERVVKKVYSYADAYEMNEGHHHHHH,not soluble
17,MRYDVLARAGFARRGNLHLPHSIVETPVFMPVGTQGTMKGIVPEQLVSMDCRILLCNTYHLGHRPGHERVKAAGGLHKMMNWNRSILTDSGGFQMVSLSKLMTVDENGVNFESPHTGEMMALPPEKSIEIQQALGADIMMQLDHVIHVLTTGDIVKEAMHRSIRWLDRCKVAHTRDDQAMFPILQGGLNLELRKECAKEMAKRAKVGIAIGGLSGGEEKDHFWRVVAACCAALPPHLPRYVMGVGFPVDLVICSFLGADMFDCVYPTRTARFGTAMVRRGGLMQLNQKRYKEDFLPIDKKCECNTCKNYTRAYIHSIVGKETVGCHLVSVHNIKHQLDLMRDVRQAIQSNSVEQFLKQFLYDYYGPIQSENPSKQDSEKMREVPQWVRDAVDHMGYKLDF,not soluble
